Publication PMC5863373, “Characterization of association of human mitochondrial lysyl-tRNA synthetase with HIV-1 Pol and tRNA3^Lys” (BMC Biochemistry, 2018)

B1: mLysRS derivative with a C-terminal deletion of 22 aminoacid residues, with a C-terminal HA-tag (domain or fragment)
chain: not shown
B2: p38, scaffold protein of the multi-synthetase complex (AIMP2), His-tagged (natural protein, human, UniProt Q13155 1-320, looked up)
chain: MPMYQVKPYHGGGAPLRVELPTCMYRLPNVHGRSYGPAPGAGHVQEESNLSLQALESRQDDILKRLYELKAAVDGLSKMIQTPDADLDVTNIIQADEPTTLTTNALDLNSVLGKDYGALKDIVINANPASPPLSLLVLHRLLCEHFRVLSTVHTHSSVKSVPENLLKCFGEQNKKQPRQDYQLGFTLIWKNVPKTQMKFSIQTMCPIEGEGNIARFLFSLFGQKHNAVNATLIDSWVDIAIFQLKEGSSKEKAAVFRSMNSALGKSPWLAGNELTVADVVLWSVLQQIGGCSVTVPANVQRWMRSCENLAPFNTALKLLK
notes: also called His-tagged p38

Legend:
[1] = biological target: T1, HIV-1 integrase with a C-terminal His6 tag (HIV-1 (pNL4-3)); test: AlphaScreen or HTRF; conditions: both partners purified
T1 construct: source: High Five insect cells (baculovirus), purified (Ni-NTA, Mono S); not shown: His6, C-terminal, kept

[2] = biological target: T2, human mitochondrial lysyl-tRNA synthetase with a C-terminal HA-tag (human, UniProt Q15046-2); test: AlphaScreen or HTRF; conditions: both partners purified
T2 construct: also called mLysRS; mLysRS-HA; source: E. coli, purified as described [12]

Binder	Kd [1] [nM]	Kd [2] [nM]
B1	8.3	–
B2	–	0.5
